Measured values as given in patent US20060263828A1.

Molecular target: Flag-β2AR (UniProt P07550)
Experiment: cell-based or functional assay

Substance β-arrestin2 (from UniProt P29067 1-410) has a β2AR degradation after 24 hrs of isoproterenol treatment (125I CYP binding on whole HEK 293 cells; mock about 25%) of 6 to 7%.
